Measured values taken from the supplement of paper PMC9170038.

Test system: MS2 coat protein
Test: apparent KD of MS2 coat protein; designed switch direction (-1 OFF switch, 1 ON switch): -1; higher = weaker reporter binding
Outline: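 Transcription of designed RNA switches on Illumina chips was done by stalled E. coli RNA polymerase. SNAP-549-labelled MS2 coat protein was then titrated in doubling steps from 0.7 or 1.5 nM to 3 µM, with steps of 0.8–1.5 h at the lowest and 10–20 min at the highest concentration. The per-design median over clusters of curve-fitted normalised fluorescence is reported as apparent KD.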

[1] = input ligand: microRNA oligo, concentration not stated
[2] = Eterna round: R95, input ligand: FMN 200 uM
[3] = Eterna round: R95, input ligand: microRNA oligo, concentration not stated
[4] = Eterna round: R95, input ligand: none

Sequence | apparent KD of MS2 coat protein (input ligand: FMN 200 uM) | apparent KD of MS2 coat protein [1] | apparent KD of MS2 coat protein (input ligand: none) | apparent KD of MS2 coat protein [2] | apparent KD of MS2 coat protein [3] | apparent KD of MS2 coat protein [4]
GACCUAUAGGUAGGAUAUCAUUGCGAUUAGCUAUGAGAAGGACCACAUGAGGAUCACCCAUGUCCUCCAAUUAGCCAUUUGGUC [Fiskers ExNg1 - 7] (Eterna round: R96, puzzle: Exclusion NG 1) | 196 nM | 47 nM | 58.3 nM |  |  | 
AGAGUACUGCGAGGAUAUACAUGAGGAUCACCCAUGUAAUAGUGUGAGGCUUUGCCUCACACAAUGUAGAAGGCGCAGUACUCA [Mat - Exclusion NG 2 - Mod of JL - D6] (Eterna round: R96, puzzle: Exclusion NG 2) | 15.7 nM | 9.81 nM | 17.8 nM |  |  | 
GAUUAUGCGAGCUUUAGGGACAUGAGGAUCACCCAUGUUCGUCUUAUUAGUCUGAAUACACUGACAUACCUAAAUCU [JMF 55] (puzzle: Sensor v3, turn-off variant 1) |  |  |  | 14.8 nM | 19.5 nM | 17.8 nM
UCCUAACAUGAGGAUCACCCAUGUGAGGAUAUGAUACUAUGUACUUCGGUACAUAGUAUCAGAAGGCACAUCCU [Ex1-3: 8] (puzzle: Exclusion 1) |  |  |  |  | 17.5 nM | 
GUCAGCUCGUGAGGAUAUACAUGCGUGCUUCGGCACGUAUGAUAGAUCACAUGAGGAUCACCCAUGUAGAAGGCACGAGCUGAC [ENG2/4-A1] (Eterna round: R96, puzzle: Exclusion NG 2) | 18.8 nM | 11.1 nM | 12.9 nM |  |  | 
UAAUUAGACUCAGGAUAUUCGAAGAGAAGAGAGGAAGAAGGGAGGUGACAUGAGGAUCACCCAUGUAUGUGUUGUGUCCAUGUG [Exclusion NG 1 S1] (Eterna round: R96, puzzle: Exclusion NG 1) | 326 nM | 553 nM | 617 nM |  |  | 
GAGAUGUGAGGAUAUCUAGACCAUGGAAAAGCCACGGUCCGAGAGAAGGCACAUGAGGAUCACCCAUGUGAUGA [Quedte] (puzzle: Exclusion 4) |  |  |  |  | 43.7 nM | 
GGUUGGCGAGGAUAUACAUGAGGAUCACCCAUGUGAGAGAAAAAAGUGAGGACGAAAAGUAGAAGGCGCUGACG [salish99_ex3_r3_032] (puzzle: Exclusion 3) |  |  |  | 223 nM | 69.1 nM | 61.6 nM
AUCAUGUCAGGAUAUAUGACAUGGCUCUUCGGAGCAAGCUCAUAGAAGGGACAUGAGGAUCACCCAUGUAGAGC [Ex4-3: 22] (puzzle: Exclusion 4) |  |  |  |  | 22.1 nM | 
GAAAACGCAGAGGAUAUUCCAGAUCUAAGCUGCGAAGAAGGCUGCACAUGAGGAUCACCCAUGUGGUCUUUAAA [Maoned] (puzzle: Exclusion 6) |  |  |  | 121 nM | 12.3 nM | 14.9 nM
GUUAAACAUGAGGAUCACCCAUGUAAGGAUAUGCUGCGGUCGCGAUGAAGUGACUGCAGCAGAAGGUACAAAUG [Mat - Mod of JL D59] (puzzle: Exclusion 1) |  |  |  | 89.8 nM | 92 nM | 102 nM
CCUCGACAUGAGGAUCACCCAUGUCAGGAUAUUGUGUAUCGGGUUUUUUACGGAAAGGCGAGAAGGGAUGUGUG [LRO-Excl1-10] (puzzle: Exclusion 1) |  |  |  |  | 15.5 nM | 
GCACGGUUGGUAGGAUAUCCUUGCGAUUAGCAAGGAGAAGGACCACAUGAGGAUCACCCAUGUACCUCAAUUAUCCUUCCGUGC [Eli exng1 - 025] (Eterna round: R96, puzzle: Exclusion NG 1) | 13.7 nM | 10.9 nM | 14.9 nM |  |  | 
GCGCACCUACCAAAAGGUAGGUCAACAUGAGGAUCACCCAUGUAGGAUAUCGAUUGCUUUGCAGUCGAGAAGGGCAUGAUGCGC [JL ENG3 3.80 Mod 14] (Eterna round: R96, puzzle: Exclusion NG 3) | 59.1 nM | 36.6 nM | 44.2 nM |  |  | 
AAAAUACGCACAGGAUAUCAAUACAUGAGGAUCACCCAUGUAACAUGGACUGGUCAGCAGAAAAGUGAGAAGGGUGCUGACGAC [Beraon] (Eterna round: R96, puzzle: Exclusion NG 2) | 187 nM | 31.6 nM | 45.6 nM |  |  | 
CGAAUUAUAGGAUAUACAUGAGGAUCACCCAUGUAACCGUGACUGGGAUGCGUCUCAAGUAGAAGGAUAGGCGC [Eternabot (L1) Solution 9] (Eterna round: R97, puzzle: Exclusion 3) | 27.2 nM |  | 14.3 nM |  |  | 
ACAAGCUUUUUGCUCGGCUACAUGAGGAUCACCCAUGUUGUGUGUUAUUGUUUUUGAUUGUUCGUGCGCAGCAGGUA [JR_SV3TOV1_Sub073] (puzzle: Sensor v3, turn-off variant 1) |  |  |  | 71 nM | 29.4 nM | 112 nM
GAUUGACAUGAGGAUCACCCAUGUGAGGAUAUCGGCCGGACCUUGUUAGCUUCCAUCGUGAGAAGGCACAUAGG [Exclusion 1 V35] (puzzle: Exclusion 1) |  |  |  |  | 26.9 nM | 
AUAAUUAAUGCAGGAUAUCAGCACGUGUAGUGCUGAGAAGGGCACAUGAGGAUCACCCAUGUGAUCAAUUAAUAUUAAUAUUAU [ENG1/11-D3] (Eterna round: R96, puzzle: Exclusion NG 1) |  | 48.4 nM |  |  |  | 
CCCAUGUUAGGAUAUAUGGAAGGGCGGACGGGCGCCCUAAGGUAGAAGGGACAUGAGGAUCACCCAUGUAAUAA [Diquar] (Eterna round: R97, puzzle: Exclusion 4) | 194 nM |  | 160 nM |  |  | 
UAAAUCGCAGGAUAUCCAGAGGAGGACAUGAGGAUCACCCAUGUGGAAAGGAAAGGAGGAGGAGAAGGGCGAUUUA [Paired] (Eterna round: R97, puzzle: Exclusion 5) | 84.4 nM |  | 72.5 nM |  |  | 
GAAUAGGGAGGAUAUCCAAUAUAUGACAUGAGGAUCACCCAUGUUUCCACUCGUACCUCCGGAGAAGGCCCAUAAG [Ex5 #5] (Eterna round: R97, puzzle: Exclusion 5) | 22.4 nM |  | 30.6 nM |  |  | 
AGAGUACUGCGAGGAUAUACAUGAGGAUCACCCAUGUGGUGGUGUGAGGCUUUGCCUCACACCAUGUAGAAGGCGCAGUACUCA [Mat - Exclusion NG 2 - Mod of JL - D19] (Eterna round: R96, puzzle: Exclusion NG 2) | 257 nM | 26.8 nM | 35.3 nM |  |  | 
UUUUAGUAAGGAUAUGUGGUACGCUUAAAAUAGGAAGGGACACAGAAGGUACAUGAGGAUCACCCAUGUGAACC [Eternabot (L1) Solution 49] (Eterna round: R97, puzzle: Exclusion 4) | 140 nM |  | 61.9 nM |  |  | 
UUAAGCUUUGAGAUCCUUAACAUGAGGAUCACCCAUGUUCGUCUUAUGAUGGUCUGAUCCCUGAGGAUCGGACCGUU [Mat - Sensor v3 - turn-off var 1 - JL Mod - D3] (puzzle: Sensor v3, turn-off variant 1) |  |  |  | 261 nM | 22.5 nM | 303 nM
GUGAACGGAGGAUAUAUAUGGGCAGCAUACGCUGCAGCUUCACAUGAGGAUCACCCAUGUAGAAGGCUGUACAC [Mat - Exclusion 2 - Mod of Hyphema - D101] (puzzle: Exclusion 2) |  |  |  |  | 8.26 nM | 
